Data on 48 molecules can be found in patent US20260274955A1 (JANUX THERAPEUTICS, published 2026).

Experiment [1] concerns the target T1, Anti-CD28 Fab (SEQ ID NOs: 202, 203).
T1 construct: biotinylated and captured on neutravidin coated plates in the phage ELISA
The experiment is described as follows: phage ELISA, Fab on plate.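 Note: crude clonal phage supernatants added to wells pretreated with blocking buffer with or without CD28 antigen, then bound phage read out via HRP-linked anti-M13 antibody.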
T1 sequence (VH, as listed by the source, chain 1 of 2): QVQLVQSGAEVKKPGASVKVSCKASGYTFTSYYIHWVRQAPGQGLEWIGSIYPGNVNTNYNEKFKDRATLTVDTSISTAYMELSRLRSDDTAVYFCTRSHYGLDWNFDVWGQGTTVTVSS
T1 sequence (VL, as listed by the source, chain 2 of 2): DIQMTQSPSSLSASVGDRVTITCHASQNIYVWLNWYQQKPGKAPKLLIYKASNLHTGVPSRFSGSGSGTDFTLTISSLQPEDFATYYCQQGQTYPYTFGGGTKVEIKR
Description: (§1) After panning, phage infected bacteria were plated out and colonies picked into 96 well blocks. Clonal phage was then amplified and separated from bacterial cells via centrifugation.
(§2) Clonal phage were harvested as crude supernatants and screened via standard ELISAs. […] Prior to the addition of clonal phage, wells were incubated with blocking buffer and CD28 antigen or blocking buffer alone. Without washing or aspirating, clonal phage supernatants were then added to the wells and incubated for a short time. Wells were then washed followed by detection of bound phage using a horse radish conjugated anti-M13 antibody. Clonal phage of interest were then sent for sequence analysis.

Experiment [2] has the same target. Briefly: phage ELISA, Fab on plate, CD28 antigen as competitor. A general note: ELISA stands for enzyme-linked immunosorbent assay.
Target sequence in this assay (VH, as listed by the source, chain 1 of 2): as the sequence (VH, as listed by the source, chain 1 of 2) above
Target sequence in this assay (VL, as listed by the source, chain 2 of 2): as the sequence (VL, as listed by the source, chain 2 of 2) above
Description: as §1, §2
For experiment [3], the target named is Anti-CD28 Fab (SEQ ID NOs: 202, 203). Briefly: phage binding ELISA on captured Fab.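 Note: clonal phage supernatants added briefly to wells pre-incubated with CD28 antigen or with blocking buffer only, then washed, bound phage read by ELISA using HRP-coupled anti-M13 antibody.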
Target sequence in this assay (VH, as listed by the source, chain 1 of 2): as the sequence (VH, as listed by the source, chain 1 of 2) above
Target sequence in this assay (VL, as listed by the source, chain 2 of 2): as the sequence (VL, as listed by the source, chain 2 of 2) above
Description: Clonal phage were harvested as crude supernatants and screened via standard ELISAs. […] Prior to the addition of clonal phage, wells were incubated with blocking buffer and CD28 antigen or blocking buffer alone. Without washing or aspirating, clonal phage supernatants were then added to the wells and incubated for a short time. Wells were then washed followed by detection of bound phage using a horse radish conjugated anti-M13 antibody.

In the case of YCDGHLPEYIAKCQ [Phage-600], the “Anti-CD28 Fab (SEQ ID NOs: 202, 203) signal” value in experiment [1] was determined as 1.43. Besides, the “Anti-CD28 Fab signal in the presence of CD28” value (“Anti-CD28 Fab signal” for short) in experiment [2] is 0.07.

On to YCAGHAEEYLEKCL [Phage-610], for which the “Anti-CD28 Fab (SEQ ID NOs: 202, 203) signal” value in experiment [1] was found to be 1.41. In addition, the “Anti-CD28 Fab signal” value in experiment [2] amounted to 0.15.

For YCDGHAPEYIQKCL [Phage-625], the “Anti-CD28 Fab (SEQ ID NOs: 202, 203) signal” value in experiment [1] was 1.38. For the same molecule, the “Anti-CD28 Fab signal” value in experiment [2] amounted to 0.06.

Take YCNGHLPEYMSKCI [Phage-618]: the “Anti-CD28 Fab (SEQ ID NOs: 202, 203) signal” value in experiment [1] came out at 1.4. In addition, the “Anti-CD28 Fab signal” value in experiment [2] turned out to be 0.07.

As for YCDGHTEAYMSKCL [Phage-807], the “Anti-CD28 Fab (SEQ ID NOs: 202, 203) signal” value in experiment [3] was 0.88.

For YCEGHLAAYMYKCL [Phage-805], the “Anti-CD28 Fab (SEQ ID NOs: 202, 203) signal” value in experiment [3] was 0.89.

Take YCDGHFTWYMAKCL [Phage-809]: the “Anti-CD28 Fab (SEQ ID NOs: 202, 203) signal” value in experiment [3] was determined as 0.87.

Regarding YCEGHISEYMGKCL [Phage-808], the “Anti-CD28 Fab (SEQ ID NOs: 202, 203) signal” value in experiment [3] was determined as 0.88.

With YCEGHHPWYVQKCL [Phage-621], in experiment [1], the “Anti-CD28 Fab (SEQ ID NOs: 202, 203) signal” value stood at 1.39. Moreover, the “Anti-CD28 Fab signal” value in experiment [2] was determined as 0.07.

Turning to YCDGHQPQYMSKCL [Phage-628], the “Anti-CD28 Fab (SEQ ID NOs: 202, 203) signal” value in experiment [1] was 1.38. Moreover, the “Anti-CD28 Fab signal” value in experiment [2] was 0.09.

YCDGHSPAFIQKCL [Phage-606]: the “Anti-CD28 Fab (SEQ ID NOs: 202, 203) signal” value in experiment [1] was 1.42. Also, the “Anti-CD28 Fab signal” value in experiment [2] was found to be 0.08.

In the case of YCDGHVLMYLAKCL [Phage-803], the “Anti-CD28 Fab (SEQ ID NOs: 202, 203) signal” value in experiment [3] amounted to 0.9.

Consider YCEGHLSEYIGKCL [Phage-811], for which, in experiment [3], the “Anti-CD28 Fab (SEQ ID NOs: 202, 203) signal” value is 0.87.

Turning to YCDGHSLEYMLKCL [Phage-620], the “Anti-CD28 Fab (SEQ ID NOs: 202, 203) signal” value in experiment [1] stood at 1.39. For the same molecule, the “Anti-CD28 Fab signal” value in experiment [2] amounted to 0.07.

For the molecule YCVGHLPQYMQKCL [Phage-599], the “Anti-CD28 Fab (SEQ ID NOs: 202, 203) signal” value in experiment [1] amounted to 1.43. Also, the “Anti-CD28 Fab signal” value in experiment [2] amounted to 0.06.

As for YCDGHNWEYMEKCL [Phage-622], the “Anti-CD28 Fab signal” value in experiment [2] came to 0.05.

Regarding YCDGHDARYMEKCL [Phage-616], the “Anti-CD28 Fab (SEQ ID NOs: 202, 203) signal” value in experiment [1] stood at 1.4. The “Anti-CD28 Fab signal” value in experiment [2] came to 0.06.

As to YCDGHSPEHMGKCL [Phage-615], in experiment [1], the “Anti-CD28 Fab (SEQ ID NOs: 202, 203) signal” value stood at 1.4. Moreover, in experiment [2], the “Anti-CD28 Fab signal” value is 0.09.

As to YCEGHDWMYMEKCL [Phage-801], the “Anti-CD28 Fab (SEQ ID NOs: 202, 203) signal” value in experiment [3] is 0.91.

For the molecule YCEGHLDEYLQKCL [Phage-626], the “Anti-CD28 Fab (SEQ ID NOs: 202, 203) signal” value in experiment [1] is 1.38. In addition, the “Anti-CD28 Fab signal” value in experiment [2] was found to be 0.07.

With YCDGHTPEYMWKCL [Phage-604], in experiment [1], the “Anti-CD28 Fab (SEQ ID NOs: 202, 203) signal” value was 1.43. In experiment [2], the “Anti-CD28 Fab signal” value was determined as 0.06.

With YCDGHTKEYMWKCL [Phage-736], the “Anti-CD28 Fab (SEQ ID NOs: 202, 203) signal” value in experiment [1] is 1.1. Also, the “Anti-CD28 Fab signal” value in experiment [2] came to 0.06.

Consider YCDGHSLEYIDKCM [Phage-607], for which the “Anti-CD28 Fab (SEQ ID NOs: 202, 203) signal” value in experiment [1] is 1.42. Further, the “Anti-CD28 Fab signal” value in experiment [2] is 0.09.

Consider YCAGHSAEYMSKCL [Phage-612], for which the “Anti-CD28 Fab (SEQ ID NOs: 202, 203) signal” value in experiment [1] came out at 1.41. Also, the “Anti-CD28 Fab signal” value in experiment [2] came to 0.07.

Turning to YCDGHLDEYMLKCL [Phage-603], the “Anti-CD28 Fab (SEQ ID NOs: 202, 203) signal” value in experiment [1] came to 1.43. Moreover, in experiment [2], the “Anti-CD28 Fab signal” value is 0.06.

As to YCEGHSQQYMQKCL [Phage-605], the “Anti-CD28 Fab (SEQ ID NOs: 202, 203) signal” value in experiment [1] came out at 1.42. The “Anti-CD28 Fab signal” value in experiment [2] stood at 0.08.

With YCEGHSQQYMWKCL [Phage-711], the “Anti-CD28 Fab (SEQ ID NOs: 202, 203) signal” value in experiment [1] was determined as 1.17. The “Anti-CD28 Fab signal” value in experiment [2] came out at 0.05.

On to YCEGHSQTYMWKCL [Phage-709], for which the “Anti-CD28 Fab (SEQ ID NOs: 202, 203) signal” value in experiment [1] turned out to be 1.17. The “Anti-CD28 Fab signal” value in experiment [2] came to 0.08.

With YCEGHSYQYMQKCL [Phage-715], the “Anti-CD28 Fab (SEQ ID NOs: 202, 203) signal” value in experiment [1] was 1.16. Also, in experiment [2], the “Anti-CD28 Fab signal” value turned out to be 0.06.

As for YCDGHSPEYMQKCL [Phage-617], in experiment [1], the “Anti-CD28 Fab (SEQ ID NOs: 202, 203) signal” value stood at 1.4. The “Anti-CD28 Fab signal” value in experiment [2] came out at 0.53.

With YCDGHLPEYMQKCL [Phage-643], the “Anti-CD28 Fab (SEQ ID NOs: 202, 203) signal” value in experiment [1] is 1.35. For the same molecule, in experiment [2], the “Anti-CD28 Fab signal” value amounted to 0.08.

In the case of YCDGHSHEYMQKCL [Phage-611], the “Anti-CD28 Fab (SEQ ID NOs: 202, 203) signal” value in experiment [1] worked out at 1.41. Also, the “Anti-CD28 Fab signal” value in experiment [2] amounted to 0.06.

In the case of YCDGHLQEYMQKCL [Phage-627], in experiment [1], the “Anti-CD28 Fab (SEQ ID NOs: 202, 203) signal” value is 1.38. Further, the “Anti-CD28 Fab signal” value in experiment [2] amounted to 0.06.

With YCDGHAEQYMSKCL [Phage-623], the “Anti-CD28 Fab (SEQ ID NOs: 202, 203) signal” value in experiment [1] was determined as 1.38. Besides, the “Anti-CD28 Fab signal” value in experiment [2] amounted to 0.07.

Regarding YCDGHIAEYRSKCL [Phage-810], the “Anti-CD28 Fab (SEQ ID NOs: 202, 203) signal” value in experiment [3] turned out to be 0.87.

YCEGHSQEYKAKCF [Phage-802]: in experiment [3], the “Anti-CD28 Fab (SEQ ID NOs: 202, 203) signal” value was 0.9.

For the molecule YCDGHSTLYMQKCL [Phage-806], the “Anti-CD28 Fab (SEQ ID NOs: 202, 203) signal” value in experiment [3] is 0.88.

With YCQGHSPNYITKCF [Phage-608], in experiment [1], the “Anti-CD28 Fab (SEQ ID NOs: 202, 203) signal” value was 1.41. Also, the “Anti-CD28 Fab signal” value in experiment [2] amounted to 0.06.

As for YCDGLFQLYMMKCL [Phage-624], the “Anti-CD28 Fab (SEQ ID NOs: 202, 203) signal” value in experiment [1] amounted to 1.38. In experiment [2], the “Anti-CD28 Fab signal” value amounted to 0.07.

Take YCDGHAPEYLGKCL [Phage-609]: the “Anti-CD28 Fab (SEQ ID NOs: 202, 203) signal” value in experiment [1] was determined as 1.41. For the same molecule, the “Anti-CD28 Fab signal” value in experiment [2] came to 0.06.

Take YCDGHLMEYKAKCL [Phage-613]: the “Anti-CD28 Fab (SEQ ID NOs: 202, 203) signal” value in experiment [1] was determined as 1.41. Also, the “Anti-CD28 Fab signal” value in experiment [2] worked out at 0.06.

Take YCEGHSAEYIAKCL [Phage-614]: the “Anti-CD28 Fab (SEQ ID NOs: 202, 203) signal” value in experiment [1] came out at 1.41. In addition, in experiment [2], the “Anti-CD28 Fab signal” value is 0.09.

As to YCEGHSAEYIGKCL [Phage-738], in experiment [1], the “Anti-CD28 Fab (SEQ ID NOs: 202, 203) signal” value was 1.08. Moreover, in experiment [2], the “Anti-CD28 Fab signal” value is 0.07.

In the case of YCDGHSAEYIAKCL [Phage-662], the “Anti-CD28 Fab (SEQ ID NOs: 202, 203) signal” value in experiment [1] was 1.31. The “Anti-CD28 Fab signal” value in experiment [2] was 0.05.

YCDGHTAQYMWKCL [Phage-812]: the “Anti-CD28 Fab (SEQ ID NOs: 202, 203) signal” value in experiment [3] turned out to be 0.87.

In the case of YCDGHSLEYIEKCL [Phage-601], in experiment [1], the “Anti-CD28 Fab (SEQ ID NOs: 202, 203) signal” value was 1.43. Moreover, in experiment [2], the “Anti-CD28 Fab signal” value is 0.06.

Take YCSGHLPEYMDKCL [Phage-619]: the “Anti-CD28 Fab (SEQ ID NOs: 202, 203) signal” value in experiment [1] came out at 1.39. Besides, the “Anti-CD28 Fab signal” value in experiment [2] stood at 0.07.

As to YCLGHSWPYIHKCY [Phage-602], the “Anti-CD28 Fab (SEQ ID NOs: 202, 203) signal” value in experiment [1] came to 1.43. For the same molecule, the “Anti-CD28 Fab signal” value in experiment [2] is 0.07.
